Data: patent publication US20260167699A1 (Chugai, published 2026)

Assays:
[1] = molecular target: T1, FcγRIa extracellular domain, C-terminal His tag (human, UniProt P12314 16-292); test: SPR (Biacore); binding relative to GpH7-A5/GpH7-B3/GpL16-k0 x100;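 also: antibodies captured on a chip surface, soluble FcγR flowed over in HBS-EP+ running buffer at 25 °C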
T1 construct: extracellular domain; also called 1a

[2] = molecular target: T2, FcγRIIa(R) extracellular domain, C-terminal His tag (human, UniProt P12318 34-217); test: as above
T2 construct: extracellular domain; Allotype R131; also called 2aR
T2 sequence: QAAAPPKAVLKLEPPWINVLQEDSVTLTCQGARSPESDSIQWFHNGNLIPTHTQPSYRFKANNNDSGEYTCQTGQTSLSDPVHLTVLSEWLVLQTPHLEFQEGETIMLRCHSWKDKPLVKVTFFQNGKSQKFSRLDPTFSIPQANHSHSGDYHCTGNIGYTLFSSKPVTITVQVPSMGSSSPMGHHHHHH

[3] = molecular target: T3, FcγRIIa(H) extracellular domain, C-terminal His tag (human, UniProt P12318 34-217); test: as above
T3 construct: extracellular domain; Allotype H131; also called 2aH
T3 sequence: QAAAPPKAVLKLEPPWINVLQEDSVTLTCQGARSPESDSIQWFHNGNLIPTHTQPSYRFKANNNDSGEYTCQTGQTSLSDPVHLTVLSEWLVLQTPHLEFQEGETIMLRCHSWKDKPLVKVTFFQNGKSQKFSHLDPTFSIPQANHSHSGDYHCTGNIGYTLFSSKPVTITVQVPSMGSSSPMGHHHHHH

[4] = molecular target: T4, FcγRIIb extracellular domain, C-terminal His tag (human, UniProt P31994 43-217); test: as above
T4 construct: extracellular domain; also called 2b
T4 sequence: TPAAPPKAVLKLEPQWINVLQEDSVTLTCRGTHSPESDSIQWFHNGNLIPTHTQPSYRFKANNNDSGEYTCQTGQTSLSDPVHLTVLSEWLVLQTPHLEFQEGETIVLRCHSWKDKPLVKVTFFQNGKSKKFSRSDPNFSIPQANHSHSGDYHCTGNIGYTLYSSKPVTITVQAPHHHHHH

[5] = molecular target: T5, FcγRIIIa extracellular domain, C-terminal His tag (human, UniProt P08637 17-208); test: as above
T5 construct: extracellular domain; also called 3a

[6] = molecular target: T6, FcγRIIIaV (human, UniProt P08637 17-208); test: SPR (Biacore), antibody captured, FcγR as analyte, 1:1 Langmuir fit
T6 construct: extracellular domain
T6 sequence (P08637 other isoform, or with tags, fused parts or gaps): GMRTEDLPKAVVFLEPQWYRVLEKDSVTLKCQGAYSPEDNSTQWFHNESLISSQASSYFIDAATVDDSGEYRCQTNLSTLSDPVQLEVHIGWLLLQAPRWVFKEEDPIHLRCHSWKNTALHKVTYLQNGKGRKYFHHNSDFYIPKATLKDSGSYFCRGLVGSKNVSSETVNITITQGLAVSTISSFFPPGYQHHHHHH
Description: The antibody of interest was analyzed for its interaction with FcγR using a BiaCore™ T100, BiaCore™ A100, or BiaCore™ 4000 surface plasmon resonance system (GE Healthcare Japan Corp.). The running buffer used was HBS-EP+ (GE Healthcare Japan Corp.). The assay temperature was set to 25° C. The sensor chips used were: a chip prepared by immobilizing antigenic peptides onto Series S Sensor Chip CM5 (GE Healthcare Japan Corp.) by the amine coupling method; a chip prepared by immobilizing antigenic peptides biotinylated in advance onto Series S Sensor Chip SA (certified) (GE Healthcare Japan Corp.) through their interaction; a chip prepared by immobilizing protein L (ACTIGEN, BioVision, Inc.) onto Series S Sensor Chip CM5 (GE Healthcare Japan Corp.); and a chip prepared by immobilizing protein A/G (Thermo Fisher Scientific K.K.) onto Series S Sensor Chip CM5 (GE Healthcare Japan Corp.). The antibody of interest was captured onto any of these chips and allowed to interact with FcγR diluted with a running buffer. The antibody captured on the chip was washed off through the reaction of 10 mM glycine-HCl (pH 1.5) to regenerate the chip, which was repetitively used.

T1 sequence (P12314 other isoform, or with tags, fused parts or gaps): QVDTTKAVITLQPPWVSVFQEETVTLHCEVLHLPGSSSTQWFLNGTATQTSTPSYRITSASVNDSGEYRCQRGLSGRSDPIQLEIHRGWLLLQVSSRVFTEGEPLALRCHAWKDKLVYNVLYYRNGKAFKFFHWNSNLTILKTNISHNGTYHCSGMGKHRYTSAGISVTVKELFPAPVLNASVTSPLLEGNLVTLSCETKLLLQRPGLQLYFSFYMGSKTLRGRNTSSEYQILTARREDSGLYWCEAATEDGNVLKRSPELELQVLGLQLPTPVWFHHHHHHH
T5 sequence (P08637 other isoform, or with tags, fused parts or gaps): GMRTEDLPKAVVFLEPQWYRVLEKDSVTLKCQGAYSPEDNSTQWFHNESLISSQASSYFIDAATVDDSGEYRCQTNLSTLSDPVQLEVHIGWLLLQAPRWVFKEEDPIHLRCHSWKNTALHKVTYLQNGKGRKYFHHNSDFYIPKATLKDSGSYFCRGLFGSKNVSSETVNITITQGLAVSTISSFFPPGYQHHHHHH

B1: GpH7-A5/GpH7-B3 variant S324_16H/GpL16-k0 (antibody, human IgG1, kappa)
heavy 1: not shown
heavy 2: not shown
light: DIVMTQSPLSLPVTPGEPASISCQASESLVHSNRNTYLHWYLQKPGQSPQLLIYKVSNRFSGVPDRFSGSGSGTDFTLKISRVEAEDVGVYYCSQNTHVPPTFGQGTKVEIERTVAAPSVFIFPPSDEQLKSGTASVVCLLNNFYPREAKVQWKVDNALQSGNSQESVTEQDSKDSTYSLSSTLTLSKADYEKHKVYACEVTHQGLSSPVTKSFNRGEC
notes: He Ab: anti-glypican 3 IgG1 heterodimer, only the GpH7-B3 chain mutated; position in EU numbering; also called He Ab
With B1 the “He/Con 1a” value [1] was 106%, the “He/Con 2aR” value [2] was 105% and the “He/Con 2aH” value [3] was 113%. For the same binder, the “He/Con 2b” value [4] was 109% and the “He/Con 3a” value [5] was 113%.

B2: H240-Kn125/H240-Hl076/L73-k0 (antibody, human IgG1, kappa)
heavy 1: QDQLVQSGAEVKKPGASVKVSCKASGFNIKDTYIQWVRQAPGQGLEWMGRIDPLRKQTKYREKFEGRVTITADTSTNTAYMELSSLRSEDTAVYYCVRSGREFDYWGQGTLVTVSSASTKGPSVFPLAPSSKSTSGGTAALGCLVKDYFPEPVTVSWNSGALTSGVHTFPAVLQSSGLYSLSSVVTVPSSSLGTQTYICNVNHKPSNTKVDKKVEPKSCDKTHTCPPCPAPELLGGPSVFLFPPKPKDTLMISRTPEVTCVVVDVSHEEPEVKFNWYVDGVEVHNAKTKPREEQYNSTYRVVSVLTVLHQDWLNGKEYKCKVSNDALPMPIEETISKAKGQPREPQVYTLPPSRCELTKNQVSLSCAVKGFYPSDIAVEWESNGQPENNYKTTPPVLDSDGSFFLVSKLTVDKSRWQQGNVFSCSVMHEALHNHYTQKSLSLSP
heavy 2: QDQLVQSGAEVKKPGASVKVSCKASGFNIKDTYIQWVRQAPGQGLEWMGRIDPLRKQTKYREKFEGRVTITADTSTNTAYMELSSLRSEDTAVYYCVRSGREFDYWGQGTLVTVSSASTKGPSVFPLAPSSKSTSGGTAALGCLVKDYFPEPVTVSWNSGALTSGVHTFPAVLQSSGLYSLSSVVTVPSSSLGTQTYICNVNHKPSNTKVDKKVEPKSCDKTHTCPPCPAPEYQWGPMVFLFPPKPKDTLMISRTPEVTCVVVDVSDEEPEVKFNWYVDGVEVHNAKTKPREEQYNATYRVVSVLTVLHQDWLNGKEYKCKVSNKALPAPIEKTISKAKGQPREPQVCTLPPSRDELTKNQVSLWCLVKGFYPSDIAVEWESNGQPENNYKTTPPVLDSDGSFFLYSKLTVDKSRWQQGNVFSCSVMHEALHNHYTQKSLSLSP
light: DIQMTQSPSSLSASVGDRVTITCRASQDIHKYIAWYQQKPGQAPRLLIQYTSTLQPGVPSRFSGSGSGTDYTFTISSLQPEDIATYYCLQYEQLRTFGGGTKVEIKRTVAAPSVFIFPPSDEQLKSGTASVVCLLNNFYPREAKVQWKVDNALQSGNSQESVTEQDSKDSTYSLSSTLTLSKADYEKHKVYACEVTHQGLSSPVTKSFNRGEC
notes: heterodimerized anti-EREG antibody, parent of the loop-extended forms; also called HI076/Kn125; parent peptide
B2 was tested, and the Kd [6] was 0.47 nM.

B3: HI076-L2-GS12 (antibody, human IgG1, kappa)
heavy 1: QDQLVQSGAEVKKPGASVKVSCKASGFNIKDTYIQWVRQAPGQGLEWMGRIDPLRKQTKYREKFEGRVTITADTSTNTAYMELSSLRSEDTAVYYCVRSGREFDYWGQGTLVTVSSASTKGPSVFPLAPSSKSTSGGTAALGCLVKDYFPEPVTVSWNSGALTSGVHTFPAVLQSSGLYSLSSVVTVPSSSLGTQTYICNVNHKPSNTKVDKKVEPKSCDKTHTCPPCPAPELLGGPSVFLFPPKPKDTLMISRTPEVTCVVVDVGGGSGGGSGGGSVKFNWYVDGVEVHNAKTKPREEQYNSTYRVVSVLTVLHQDWLNGKEYKCKVSNDALPMPIEETISKAKGQPREPQVYTLPPSRCELTKNQVSLSCAVKGFYPSDIAVEWESNGQPENNYKTTPPVLDSDGSFFLVSKLTVDKSRWQQGNVFSCSVMHEALHNHYTQKSLSLSP
heavy 2: QDQLVQSGAEVKKPGASVKVSCKASGFNIKDTYIQWVRQAPGQGLEWMGRIDPLRKQTKYREKFEGRVTITADTSTNTAYMELSSLRSEDTAVYYCVRSGREFDYWGQGTLVTVSSASTKGPSVFPLAPSSKSTSGGTAALGCLVKDYFPEPVTVSWNSGALTSGVHTFPAVLQSSGLYSLSSVVTVPSSSLGTQTYICNVNHKPSNTKVDKKVEPKSCDKTHTCPPCPAPEYQWGPMVFLFPPKPKDTLMISRTPEVTCVVVDVSDEEPEVKFNWYVDGVEVHNAKTKPREEQYNATYRVVSVLTVLHQDWLNGKEYKCKVSNKALPAPIEKTISKAKGQPREPQVCTLPPSRDELTKNQVSLWCLVKGFYPSDIAVEWESNGQPENNYKTTPPVLDSDGSFFLYSKLTVDKSRWQQGNVFSCSVMHEALHNHYTQKSLSLSP
light: DIQMTQSPSSLSASVGDRVTITCRASQDIHKYIAWYQQKPGQAPRLLIQYTSTLQPGVPSRFSGSGSGTDYTFTISSLQPEDIATYYCLQYEQLRTFGGGTKVEIKRTVAAPSVFIFPPSDEQLKSGTASVVCLLNNFYPREAKVQWKVDNALQSGNSQESVTEQDSKDSTYSLSSTLTLSKADYEKHKVYACEVTHQGLSSPVTKSFNRGEC
notes: heterodimerized anti-EREG antibody: altered H240-Hl076 chain (Gly/Ser peptide in loop) with H240-Kn125 and L73-k0; also called Hl076-L2-GS12_2
B3 showed a Kd [6] of 2.8 nM.

B4: HI076-L2-GS6 (antibody, human IgG1, kappa)
heavy 1: QDQLVQSGAEVKKPGASVKVSCKASGFNIKDTYIQWVRQAPGQGLEWMGRIDPLRKQTKYREKFEGRVTITADTSTNTAYMELSSLRSEDTAVYYCVRSGREFDYWGQGTLVTVSSASTKGPSVFPLAPSSKSTSGGTAALGCLVKDYFPEPVTVSWNSGALTSGVHTFPAVLQSSGLYSLSSVVTVPSSSLGTQTYICNVNHKPSNTKVDKKVEPKSCDKTHTCPPCPAPELLGGPSVFLFPPKPKDTLMISRTPEVTCVVVDVGGSGGSVKFNWYVDGVEVHNAKTKPREEQYNSTYRVVSVLTVLHQDWLNGKEYKCKVSNDALPMPIEETISKAKGQPREPQVYTLPPSRCELTKNQVSLSCAVKGFYPSDIAVEWESNGQPENNYKTTPPVLDSDGSFFLVSKLTVDKSRWQQGNVFSCSVMHEALHNHYTQKSLSLSP
heavy 2: QDQLVQSGAEVKKPGASVKVSCKASGFNIKDTYIQWVRQAPGQGLEWMGRIDPLRKQTKYREKFEGRVTITADTSTNTAYMELSSLRSEDTAVYYCVRSGREFDYWGQGTLVTVSSASTKGPSVFPLAPSSKSTSGGTAALGCLVKDYFPEPVTVSWNSGALTSGVHTFPAVLQSSGLYSLSSVVTVPSSSLGTQTYICNVNHKPSNTKVDKKVEPKSCDKTHTCPPCPAPEYQWGPMVFLFPPKPKDTLMISRTPEVTCVVVDVSDEEPEVKFNWYVDGVEVHNAKTKPREEQYNATYRVVSVLTVLHQDWLNGKEYKCKVSNKALPAPIEKTISKAKGQPREPQVCTLPPSRDELTKNQVSLWCLVKGFYPSDIAVEWESNGQPENNYKTTPPVLDSDGSFFLYSKLTVDKSRWQQGNVFSCSVMHEALHNHYTQKSLSLSP
light: DIQMTQSPSSLSASVGDRVTITCRASQDIHKYIAWYQQKPGQAPRLLIQYTSTLQPGVPSRFSGSGSGTDYTFTISSLQPEDIATYYCLQYEQLRTFGGGTKVEIKRTVAAPSVFIFPPSDEQLKSGTASVVCLLNNFYPREAKVQWKVDNALQSGNSQESVTEQDSKDSTYSLSSTLTLSKADYEKHKVYACEVTHQGLSSPVTKSFNRGEC
notes: heterodimerized anti-EREG antibody: altered H240-Hl076 chain (Gly/Ser peptide in loop) with H240-Kn125 and L73-k0; also called Hl076-L2-GS6_2
B4 was tested, and the Kd [6] was 2.8 nM.

B5: Kn125-L4-GS5 (antibody, human IgG1, kappa)
heavy 1: QDQLVQSGAEVKKPGASVKVSCKASGFNIKDTYIQWVRQAPGQGLEWMGRIDPLRKQTKYREKFEGRVTITADTSTNTAYMELSSLRSEDTAVYYCVRSGREFDYWGQGTLVTVSSASTKGPSVFPLAPSSKSTSGGTAALGCLVKDYFPEPVTVSWNSGALTSGVHTFPAVLQSSGLYSLSSVVTVPSSSLGTQTYICNVNHKPSNTKVDKKVEPKSCDKTHTCPPCPAPELLGGPSVFLFPPKPKDTLMISRTPEVTCVVVDVSHEEPEVKFNWYVDGVEVHNAKTKPREEQYNSTYRVVSVLTVLHQDWLNGKEYKCKVSNDALPMPIEETISKAKGQPREPQVYTLPPSRCELTKNQVSLSCAVKGFYPSDIAVEWESNGQPENNYKTTPPVLDSDGSFFLVSKLTVDKSRWQQGNVFSCSVMHEALHNHYTQKSLSLSP
heavy 2: QDQLVQSGAEVKKPGASVKVSCKASGFNIKDTYIQWVRQAPGQGLEWMGRIDPLRKQTKYREKFEGRVTITADTSTNTAYMELSSLRSEDTAVYYCVRSGREFDYWGQGTLVTVSSASTKGPSVFPLAPSSKSTSGGTAALGCLVKDYFPEPVTVSWNSGALTSGVHTFPAVLQSSGLYSLSSVVTVPSSSLGTQTYICNVNHKPSNTKVDKKVEPKSCDKTHTCPPCPAPEYQWGPMVFLFPPKPKDTLMISRTPEVTCVVVDVSDEEPEVKFNWYVDGVEVHNAKTKPREEQYNATYRVVSVLTVLHQDWLNGKEYKCKVSNGSGGSPIEKTISKAKGQPREPQVCTLPPSRDELTKNQVSLWCLVKGFYPSDIAVEWESNGQPENNYKTTPPVLDSDGSFFLYSKLTVDKSRWQQGNVFSCSVMHEALHNHYTQKSLSLSP
light: DIQMTQSPSSLSASVGDRVTITCRASQDIHKYIAWYQQKPGQAPRLLIQYTSTLQPGVPSRFSGSGSGTDYTFTISSLQPEDIATYYCLQYEQLRTFGGGTKVEIKRTVAAPSVFIFPPSDEQLKSGTASVVCLLNNFYPREAKVQWKVDNALQSGNSQESVTEQDSKDSTYSLSSTLTLSKADYEKHKVYACEVTHQGLSSPVTKSFNRGEC
notes: heterodimerized anti-EREG antibody: altered H240-Kn125 chain (Gly/Ser peptide in loop) with H240-Hl076 and L73-k0
B5 gave a Kd [6] of 1.8 nM.
